This note sets out measurements from patent publication CN110872351A.

The target in this experiment is GPC3蛋白 (glypican-3 protein expressed in eukaryotic HEK293 cells) (UniProt P51654). The experiment in a line: sandwich ELISA: coated GPC3 polyclonal antibody, GPC3 protein at varied concentration, GN1-Luc fixed at 0.2 μg/mL, luminescence; the value is a GPC3 concentration. For orientation: An ELISA detects its analyte on a solid surface through an enzyme-linked reagent.
Sequence of UniProt P51654 (P51654 25-559 limits assumed): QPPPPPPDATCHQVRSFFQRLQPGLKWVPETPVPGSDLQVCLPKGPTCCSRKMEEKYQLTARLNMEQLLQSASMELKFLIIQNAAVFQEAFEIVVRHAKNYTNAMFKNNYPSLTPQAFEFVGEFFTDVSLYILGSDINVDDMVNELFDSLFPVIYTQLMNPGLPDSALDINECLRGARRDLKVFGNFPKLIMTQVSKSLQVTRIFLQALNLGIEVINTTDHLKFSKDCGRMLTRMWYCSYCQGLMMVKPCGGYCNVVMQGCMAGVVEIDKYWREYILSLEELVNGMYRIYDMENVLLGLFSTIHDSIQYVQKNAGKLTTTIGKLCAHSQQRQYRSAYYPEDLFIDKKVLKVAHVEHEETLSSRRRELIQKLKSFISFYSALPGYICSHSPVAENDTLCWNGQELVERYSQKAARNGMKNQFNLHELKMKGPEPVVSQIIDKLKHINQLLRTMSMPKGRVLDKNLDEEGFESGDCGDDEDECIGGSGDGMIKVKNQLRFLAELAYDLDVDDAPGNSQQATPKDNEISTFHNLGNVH

B1: 融合蛋白GN1-Luc (fusion of nanobody GN1 and Nano-luciferase) (protein, part only; not given: junction residues and His tag, part only)
chain, part: QVQLVESGGGLVQAGGSLRLSCAASGRTFVGSTMGWFRQAPGKEREFVARMSWLGRSTYYADSVKGRFTISRDNAKNTVYLQMNSLKPEDTAVYYCALALGYIDLARPDAVDAWGQGTLVTVSS
Turning to B1, the EC20 stood at 0.0519 µg/mL and the 80% effect concentration (EC80) amounted to 0.157 µg/mL.

As usually defined, the EC20 is the point of the concentration-response curve where the effect stands at 20%. Higher therefore signals weaker potency. Usually EC80 stands for the point of the concentration-response curve where the effect stands at 80%. Read a high EC80 as weaker potency.
